Measurements reported in US20210009686A1.

Tests used:
[1] = molecular target: claudin 18.2 (CLDN18.2) (human); test: in-cell ELISA on HEK293-CLDN18.2 cells
[2] = molecular target: claudin 18.1 (CLDN18.1) (human) (UniProt P56856); test: in-cell ELISA on HEK293-CLDN18.1 cells
Sequence of claudin 18.1 (CLDN18.1) (human) (P56856 whole entry): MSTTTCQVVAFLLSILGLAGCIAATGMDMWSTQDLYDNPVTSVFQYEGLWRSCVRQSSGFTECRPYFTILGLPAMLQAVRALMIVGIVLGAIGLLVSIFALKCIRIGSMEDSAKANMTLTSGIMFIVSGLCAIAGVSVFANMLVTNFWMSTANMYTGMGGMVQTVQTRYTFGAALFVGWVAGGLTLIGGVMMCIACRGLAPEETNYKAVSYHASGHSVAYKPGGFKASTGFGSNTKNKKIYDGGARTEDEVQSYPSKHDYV

Q: For mouse IgG (control) (antibody), which OD450/µg IgG [1] is on record?
A: 3.23 OD450/µg IgG

Q: What about the OD450/µg IgG [2] of the same substance?
A: 1.54 OD450/µg IgG
